The data set concerns the molecule itself. Description: cross-linking.

B1: coiled-coil domain of human LRRFIP1 (LRRFIP1-CC) (domain or fragment)
chain: MDSLAEVEEKYKKAMVSNAQLDNEKTNFMYQVDTLKDMLLELEEQLAESRRQYEEKNKEFEREKHAHSILQFQFAEVKEALKQREEMLEK
The stoichiometry N is the number of molecules, sites or subunits per partner or assembly. Consider B1, for which the “stoichiometry N” value stood at 2.

The record behind these values is article PMC3525766 (Journal of structural biology, 2012).
